Measured values published in US20200223889A1 (Novo Nordisk, published 2020).
Positions of bridges follow the written chain, without caps; N, C: chain ends. Non-standard residues stand in square brackets, D forms with d. Lys(CH2CO2H)2 = N[C@@H](CCCCN(CC(=O)O)CC(=O)O)C(=O)O; Phe(3,4-(OMe)2) = COc1ccc(C[C@H](N)C(=O)O)cc1OC; 2Nal = N[C@@H](Cc1ccc2ccccc2c1)C(=O)O; Ser(ΨH,HPro) = O=C(O)[C@@H]1COCN1; Hyp = O=C(O)[C@@H]1C[C@@H](O)CN1; Cit = NC(=O)NCCC[C@H](N)C(=O)O; Pen = CC(C)(S)[C@H](N)C(=O)O; Pip = O=C(O)[C@@H]1CCCCN1; Thz = O=C(O)[C@@H]1CSCN1; Aze = O=C(O)[C@@H]1CCN1; Sar = CNCC(=O)O

Experiments:
[1] = target: T1, human melanocortin 4 receptor (human, UniProt P32245 1-332); assay: cell-based or functional assay
[2] = target: human melanocortin 1 receptor (human, UniProt Q01726 1-317); assay: cell-based or functional assay
[3] = target: T1, human melanocortin 4 receptor; assay: competition with 125-NDP-α-MSH, BHK human MC4R membranes
In short: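 Competition binding used membranes from BHK cells stably expressing human MC4R with ¹²⁵I-NDP-α-MSH (apx. […] final), compound at 1 μM–0.001 nM. Incubation was 2 h at 25 °C in HEPES pH 7.0 buffer with CaCl₂, MgSO₄, EGTA, Tween 20 and 0.1% HSA or ovalbumin. Filter-bound radioactivity was fitted by non-linear regression.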

T1 sequence (P32245 whole entry): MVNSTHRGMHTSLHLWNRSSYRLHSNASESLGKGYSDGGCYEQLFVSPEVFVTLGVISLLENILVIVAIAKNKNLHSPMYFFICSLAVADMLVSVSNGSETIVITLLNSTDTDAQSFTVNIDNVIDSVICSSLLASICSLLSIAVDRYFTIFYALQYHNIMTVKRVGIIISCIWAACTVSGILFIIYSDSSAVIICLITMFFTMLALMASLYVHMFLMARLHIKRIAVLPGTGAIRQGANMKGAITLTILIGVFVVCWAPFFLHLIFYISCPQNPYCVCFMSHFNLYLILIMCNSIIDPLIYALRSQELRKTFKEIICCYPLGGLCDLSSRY
human melanocortin 1 receptor, sequence (Q01726 whole entry): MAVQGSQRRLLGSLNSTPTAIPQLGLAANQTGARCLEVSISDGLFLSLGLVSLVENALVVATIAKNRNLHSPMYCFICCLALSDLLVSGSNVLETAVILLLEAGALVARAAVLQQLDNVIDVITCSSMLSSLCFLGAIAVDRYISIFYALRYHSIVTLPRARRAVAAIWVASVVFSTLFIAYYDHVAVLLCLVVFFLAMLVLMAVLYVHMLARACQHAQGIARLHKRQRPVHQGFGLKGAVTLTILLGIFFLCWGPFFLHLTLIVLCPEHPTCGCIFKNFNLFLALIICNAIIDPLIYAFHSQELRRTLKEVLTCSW

| Binder | MC4R cAMP EC50 [1] [nM] | MC1R cAMP EC50 [2] [nM] | Ki [3] [nM] |
| --- | --- | --- | --- |
| cyclo(C[Ser(ΨH,HPro)]H[dF]HWCAKKKW) (disulfide 1-7; SMILES C[C@@H]1NC(=O)[C@@H]2CSSC[C@H](NC(=O)[C@H](Cc3c[nH]c4ccccc34)NC(=O)[C@H](CCCCN)NC(=O)[C@H](CCCCN)NC(=O)[C@H](CCCCN)NC1=O)C(=O)N1COC[C@H]1C(=O)N[C@@H](Cc1c[nH]cn1)C(=O)N[C@H](Cc1ccccc1)C(=O)N[C@@H](Cc1c[nH]cn1)C(=O)N[C@@H](Cc1c[nH]c3ccccc13)C(=O)N2, also called c[c[Cys-OXA-His-D-Phe-His-Trp-Cys]-Ala-Lys-Lys-Lys-Trp]) [Chem. 103] | 0.05 | > 70 | 0.06 |
| cyclo([Pen]PH[dF]HWCAKKKR) (disulfide 1-7; SMILES C[C@@H]1NC(=O)[C@@H]2CSSC(C)(C)[C@H](NC(=O)[C@H](CCCNC(=N)N)NC(=O)[C@H](CCCCN)NC(=O)[C@H](CCCCN)NC(=O)[C@H](CCCCN)NC1=O)C(=O)N1CCC[C@H]1C(=O)N[C@@H](Cc1c[nH]cn1)C(=O)N[C@H](Cc1ccccc1)C(=O)N[C@@H](Cc1c[nH]cn1)C(=O)N[C@@H](Cc1c[nH]c3ccccc13)C(=O)N2, also called c[c[Pen-Pro-His-D-Phe-His-Trp-Cys]-Ala-Lys-Lys-Lys-Arg]) [Chem. 92] | 0.13 | 47.1 | 0.04 |
| cyclo(C[dP]H[dF]HWCAKKKW) (disulfide 1-7, also called c[c[Cys-D-Pro-His-D-Phe-His-Trp-Cys]-Ala-Lys-Lys-Lys-Trp]) [Chem. 98] | 2.7 | > 55 | 0.6 |
| cyclo(CAH[dF]R[Phe(3,4-(OMe)2)]CAKKKW) (disulfide 1-7; SMILES COc1ccc(C[C@@H]2NC(=O)[C@H](CCCNC(=N)N)NC(=O)[C@@H](Cc3ccccc3)NC(=O)[C@H](Cc3c[nH]cn3)NC(=O)[C@H](C)NC(=O)[C@@H]3CSSC[C@H](NC2=O)C(=O)N[C@@H](C)C(=O)N[C@@H](CCCCN)C(=O)N[C@@H](CCCCN)C(=O)N[C@@H](CCCCN)C(=O)N[C@@H](Cc2c[nH]c4ccccc24)C(=O)N3)cc1OC, also called c[c[Cys-Ala-His-D-Phe-Arg-3,4-DiMeo-Phe-Cys]-Ala-Lys-Lys-Lys-Trp]) [Chem. 67] | 2.99 | > 55 | 0.95 |
| cyclo(C[Aze]H[dF]HWCAKKKW) (disulfide 1-7; SMILES C[C@@H]1NC(=O)[C@@H]2CSSC[C@H](NC(=O)[C@H](Cc3c[nH]c4ccccc34)NC(=O)[C@H](CCCCN)NC(=O)[C@H](CCCCN)NC(=O)[C@H](CCCCN)NC1=O)C(=O)N1CC[C@H]1C(=O)N[C@@H](Cc1c[nH]cn1)C(=O)N[C@H](Cc1ccccc1)C(=O)N[C@@H](Cc1c[nH]cn1)C(=O)N[C@@H](Cc1c[nH]c3ccccc13)C(=O)N2, also called c[c[Cys-AZE-His-D-Phe-His-Trp-Cys]-Ala-Lys-Lys-Lys-Trp]) [Chem. 82] | 0.53 | 94.3 | 0.07 |
| cyclo(CPH[dF][Cit]WCAKKKR) (disulfide 1-7; SMILES C[C@@H]1NC(=O)[C@@H]2CSSC[C@H](NC(=O)[C@H](CCCNC(=N)N)NC(=O)[C@H](CCCCN)NC(=O)[C@H](CCCCN)NC(=O)[C@H](CCCCN)NC1=O)C(=O)N1CCC[C@H]1C(=O)N[C@@H](Cc1c[nH]cn1)C(=O)N[C@H](Cc1ccccc1)C(=O)N[C@@H](CCCNC(N)=O)C(=O)N[C@@H](Cc1c[nH]c3ccccc13)C(=O)N2, Printed shorthand is identical to that of Chem. 99; the drawings may differ; also called c[c[Cys-Pro-His-D-Phe-Cit-Trp-Cys]-Ala-Lys-Lys-Lys-Arg]) [Chem. 72] | 0.03 | 5.86 | 0.03 |
| cyclo(C[Sar]H[dF]HWCAKKKW) (disulfide 1-7; SMILES C[C@@H]1NC(=O)[C@@H]2CSSC[C@H](NC(=O)[C@H](Cc3c[nH]c4ccccc34)NC(=O)[C@H](CCCCN)NC(=O)[C@H](CCCCN)NC(=O)[C@H](CCCCN)NC1=O)C(=O)N(C)CC(=O)N[C@@H](Cc1c[nH]cn1)C(=O)N[C@H](Cc1ccccc1)C(=O)N[C@@H](Cc1c[nH]cn1)C(=O)N[C@@H](Cc1c[nH]c3ccccc13)C(=O)N2, also called c[c[Cys-Sar-His-D-Phe-His-Trp-Cys]-Ala-Lys-Lys-Lys-Trp]) [Chem. 73] | 1.26 | > 50 | 0.3 |
| cyclo(C[Hyp]H[dF]HWCAKKKW) (disulfide 1-7; SMILES C[C@@H]1NC(=O)[C@@H]2CSSC[C@H](NC(=O)[C@H](Cc3c[nH]c4ccccc34)NC(=O)[C@H](CCCCN)NC(=O)[C@H](CCCCN)NC(=O)[C@H](CCCCN)NC1=O)C(=O)N1C[C@H](O)C[C@H]1C(=O)N[C@@H](Cc1c[nH]cn1)C(=O)N[C@H](Cc1ccccc1)C(=O)N[C@@H](Cc1c[nH]cn1)C(=O)N[C@@H](Cc1c[nH]c3ccccc13)C(=O)N2, also called c[c[Cys-Hyp-His-D-Phe-His-Trp-Cys]-Ala-Lys-Lys-Lys-Trp]) [Chem. 70] | 0.38 | 75.7 | 0.07 |
| cyclo(C[Thz]H[dF]HWCAA[Lys(CH2CO2H)2]AW) (disulfide 1-7; SMILES C[C@@H]1NC(=O)[C@H](C)NC(=O)[C@@H]2CSSC[C@H](NC(=O)[C@H](Cc3c[nH]c4ccccc34)NC(=O)[C@H](C)NC(=O)[C@H](CCCCN(CC(=O)O)CC(=O)O)NC1=O)C(=O)N1CSC[C@H]1C(=O)N[C@@H](Cc1c[nH]cn1)C(=O)N[C@H](Cc1ccccc1)C(=O)N[C@@H](Cc1c[nH]cn1)C(=O)N[C@@H](Cc1c[nH]c3ccccc13)C(=O)N2, also called c[c[Cys-THAZ-His-D-Phe-His-Trp-Cys]-Ala-Ala-Lys(CH2COOH)2-Ala-Trp]) [Chem. 104] | 0.6 | > 100 | 8.87 |
| cyclo(CAH[dF]RWRCAH[dF]RWR) (disulfide 1-8; SMILES C[C@@H]1NC(=O)[C@@H]2CSSC[C@H](NC(=O)[C@H](CCCNC(=N)N)NC(=O)[C@H](Cc3c[nH]c4ccccc34)NC(=O)[C@H](CCCNC(=N)N)NC(=O)[C@@H](Cc3ccccc3)NC(=O)[C@H](Cc3c[nH]cn3)NC1=O)C(=O)N[C@@H](C)C(=O)N[C@@H](Cc1c[nH]cn1)C(=O)N[C@H](Cc1ccccc1)C(=O)N[C@@H](CCCNC(=N)N)C(=O)N[C@@H](Cc1c[nH]c3ccccc13)C(=O)N[C@@H](CCCNC(=N)N)C(=O)N2, also called c[c[Cys-Ala-His-D-Phe-Arg-Trp-Arg-Cys]-Ala-His-D-Phe-Arg-Trp-Arg]) [Chem. 69] | 1.52 | 6.9 | 4.65 |
| cyclo(C[Pip]H[dF]HWCAKKKW) (disulfide 1-7, also called c[c[Cys-PIP-His-D-Phe-His-Trp-Cys]-Ala-Lys-Lys-Lys-Trp]) [Chem. 83] | 2.15 | > 10 | 0.17 |
| CXHFRWCXHFRW (Aib 2, 8; D-Phe 4, 10; disulphide Cys1-Cys7; head-to-tail amide Cys1-Trp12, also called c[c[Cys-Aib-His-D-Phe-Arg-Trp-Cys]-Aib-His-D-Phe-Arg-Trp]) [Chem. 9] | 0.02 | 4.02 | 0.06 |
| cyclo(C[Thz]H[dF]HWC[Thz]H[dF]HW) (disulfide 1-7; SMILES O=C1N[C@H]2CSSC[C@H](NC(=O)[C@H](Cc3c[nH]c4ccccc34)NC(=O)[C@H](Cc3c[nH]cn3)NC(=O)[C@@H](Cc3ccccc3)NC(=O)[C@H](Cc3c[nH]cn3)NC(=O)[C@@H]3CSCN3C2=O)C(=O)N2CSC[C@H]2C(=O)N[C@@H](Cc2c[nH]cn2)C(=O)N[C@H](Cc2ccccc2)C(=O)N[C@@H](Cc2c[nH]cn2)C(=O)N[C@H]1Cc1c[nH]c2ccccc12, also called c[c[Cys-THAZ-His-D-Phe-His-Trp-Cys]-THAZ-His-D-Phe-His-Trp]) [Chem. 91] | 0.71 | > 10 | 0.51 |
| cyclo(C[Thz]H[dF]HWCAKKKW) (disulfide 1-7; SMILES C[C@@H]1NC(=O)[C@@H]2CSSC[C@H](NC(=O)[C@H](Cc3c[nH]c4ccccc34)NC(=O)[C@H](CCCCN)NC(=O)[C@H](CCCCN)NC(=O)[C@H](CCCCN)NC1=O)C(=O)N1CSC[C@H]1C(=O)N[C@@H](Cc1c[nH]cn1)C(=O)N[C@H](Cc1ccccc1)C(=O)N[C@@H](Cc1c[nH]cn1)C(=O)N[C@@H](Cc1c[nH]c3ccccc13)C(=O)N2, also called c[c[Cys-THAZ-His-D-Phe-His-Trp-Cys]-Ala-Lys-Lys-Lys-Trp]) [Chem. 81] | 0.07 | 67 | 0.03 |
| cyclo(CPH[dF]HW[Pen]AKKKR) (disulfide 1-7; SMILES C[C@@H]1NC(=O)[C@H]2NC(=O)[C@H](Cc3c[nH]c4ccccc34)NC(=O)[C@H](Cc3c[nH]cn3)NC(=O)[C@@H](Cc3ccccc3)NC(=O)[C@H](Cc3c[nH]cn3)NC(=O)[C@@H]3CCCN3C(=O)[C@H](CSSC2(C)C)NC(=O)[C@H](CCCNC(=N)N)NC(=O)[C@H](CCCCN)NC(=O)[C@H](CCCCN)NC(=O)[C@H](CCCCN)NC1=O, also called c[c[Cys-Pro-His-D-Phe-His-Trp-Pen]-Ala-Lys-Lys-Lys-Arg]) [Chem. 93] | 0.04 | 18.2 | 0.03 |
| cyclo(CAH[dF]R[2Nal]CAKKKW) (disulfide 1-7; SMILES C[C@@H]1NC(=O)[C@@H]2CSSC[C@H](NC(=O)[C@H](Cc3ccc4ccccc4c3)NC(=O)[C@H](CCCNC(=N)N)NC(=O)[C@@H](Cc3ccccc3)NC(=O)[C@H](Cc3c[nH]cn3)NC1=O)C(=O)N[C@@H](C)C(=O)N[C@@H](CCCCN)C(=O)N[C@@H](CCCCN)C(=O)N[C@@H](CCCCN)C(=O)N[C@@H](Cc1c[nH]c3ccccc13)C(=O)N2, also called c[c[Cys-Ala-His-D-Phe-Arg-2-Nal-Cys]-Ala-Lys-Lys-Lys-Trp]) [Chem. 79] | 0.02 | 1.16 | 0.03 |
| cyclo(CPH[dF]R[Phe(3,4-(OMe)2)]CAKKKR) (disulfide 1-7, also called c[c[Cys-Pro-His-D-Phe-Arg-3,4-DiMeO-Phe-Cys]-Ala-Lys-Lys-Lys-Arg]) [Chem. 94] | 4.38 | 113 | 0.25 |
| cyclo(CH[dF]RWRCH[dF]RWR) (disulfide 1-7; SMILES N=C(N)NCCC[C@@H]1NC(=O)[C@H](Cc2c[nH]c3ccccc23)NC(=O)[C@H](CCCNC(=N)N)NC(=O)[C@@H](Cc2ccccc2)NC(=O)[C@H](Cc2c[nH]cn2)NC(=O)[C@@H]2CSSC[C@H](NC1=O)C(=O)N[C@@H](Cc1c[nH]cn1)C(=O)N[C@H](Cc1ccccc1)C(=O)N[C@@H](CCCNC(=N)N)C(=O)N[C@@H](Cc1c[nH]c3ccccc13)C(=O)N[C@@H](CCCNC(=N)N)C(=O)N2, also called c[c[Cys-His-D-Phe-Arg-Trp-Arg-Cys]-His-D-Phe-Arg-Trp-Arg]) [Chem. 68] | 4.35 | 4.87 | 10.4 |
